Experimental data taken from the DeepSol protein solubility set.

Assay: soluble on expression in E. coli; label from the status in PepcDB or PDB records

Sequence | soluble on expression in E. coli
MSLKWSITQLRKYQGKPFEFDQTVSFDNLKESLDLIDLSPITIQGQLTIKSTEVVADIHITGTYTMPCARTLVPVKVPLDVTTTEVFDLEGYNQYNDDQDDVDEHYHIIKDGMVNLQDIVEDIVIIEKPMRAYSEQSDQMLTVGNGWEVIDEDQLDELAKQQEQDDSESRQVDPRLQKLQQLYDKEQEGHHHHHH | soluble
MSLKWTIYQLHQMPKQSFEFDETVELNELTKLNSDIRRISPVRVKGRADIKSKQVSFDFTISGEMLLPCSRTLVDVPYPFEISTKELFIFHHTDDIEDDDVHIVEDDTIDITPIVKEEILLEIPMQIFCESEQEKGAAPQEGKDWQVISEEDKKNQVDPRLAALEKLLKQDDESEGHHHHHH | soluble
MSLKYEYCPICGKKLEKKYSYDEGDVPYCQKDKIMFFDVPKPCVLVAVIKGQEILLLKQEYTFKDSKILVSGYVANGETVEETVVREVKEEVGIIVEKPEYLGSYYFKPKELIMLTFMVRYVSGEITKSQEVDEAYWVNMRDVLQEMNEDKVGKDVVKKVFKRIGYNEEKYLHKEGHHHHHH | not soluble
MSLKYLVIGSNSFTGASMVSYLLDQGADVVGISRSDEPHPAFLPYRWKKADRFRFQKLDLNHDLDAIMQLVTAERFPCIINFAAQSMVGESWANPDHWFMTNVVSTVRLHERLRICDFLERYVHVTTPEVYGNATGTLTEDAVFDPSTPYAVSRAAGDMSLRSYFRAYGFPVLFTRAANVYGPGQRLYRIVPRTILFIKLGRKLQLHGGGTSERSFIHAADVADATRRIACNGKLGDSYHISTDRIVTIRALVEMICAMMRVRFEDQVEIVGERLGKDAAYKLDSSKLRSELGWSDQITLEQGIEQTIAWIDRWFEELKSQPFDYAHKEGHHHHHH | not soluble
MSLKYPGFLYLNDIHIDLSYNPKSNKDWCHSQTNNLLESWEFGQYNCDPPPKLYDSLVESLKTNVPSVDFILLGGDLPSHDLGGNYTFLKEHFRLITDPLEKLYPNKKIFITLGNNDFQENYGSFKTDLKDFENAHEVFGKWMNEEQSKTFKKGGYYYEDMPELKLRLLLLNTVMYTNTKSRVFNESLKDPYDQFAWIRQTYKEGVDKGYKVGVALHVPPGIVYYKGIPGFPSMYLEEFGKVFEECDFSFTISGHSHIDTLNPLYKANVEEDNIQYSLSAVSVSPSHYNNPGYRYFEIKDGVLQDYTQFYADIMMNPDSPKWEVEYKFRDAYKVKDLSKKSLNDATRYIRSKGSVIWSYRGYIYSQAEKYNPFFYCALRALTKEDVFKCSLDLNVNLSSEGHHHHHH | soluble
MSLKYVKSLFEIHPDIATKFRIKNQYLKTGYMNVLLCLIETVRRSPKEISKNDLADAYVALESLTDHGFKLDWLKKKLDQVTQKKEKEAAGETRMHEIGEELKDLKLKCSDLEAQLDKVKWKCSDLEAQLVKEKADVLAAIAPLGSSDDGVFDDFFEKQYTGFVRKYQIGASQTWFLLLNSRPKIVDFWSRANSKALLKARFLKLLAYAMCQNQKAWMSTGFMFYLPKRLLAFPKGNDTKSDHLSLYLDVAESESLPCGWRRHAQFSFTIVNHIPEKCSQRKDGEGSSFYEEIQLGHQEFLLFAIAENILASVRDARLQEGHHHHHH | not soluble
MSLLEYLPPGVDTDRFRPDPAARAELRKRYRLGERPTVVCLSRLVPRKGQDTLVTALPSIRRRVDGAALVIVGGGPYLETLRKLAHDCGVADHVTFTGGVATDELPAHHALADVFAMPCRTRGAGMDVEGLGIVFLEASAAGVPVIAGNSGGAPETVQHNKTGLVVDGRSVDRVADAVAELLIDRDRAVAMGAAGREWVTAQWRWDTLAAKLAEGHHHHHH | not soluble
MSLLIKNGKIFTCEEGKIYEKGDILIKDGKISKIGEDLSQYIGEEEVIDAKGLLIFPGFIEAHCHLGLHEEGNNGAGNGTNEASEPITPQMRAIDGINPFDGGFQSAREAGVTTAVIGPGSANVIGGQFAAVKTSGICIDDMIIKESVAIKVAFGENPKRVYSGKNKMPNTRMAIAALLRETLTEAVNYKNRKIDAEIEDKDFSKNLKYEALLPLINREIPMKAHAHRADDILTAIRIAKEFNLKLTLDHCTEGHLISDYIKRENLDAIVGPTLSFNGKAETLNKTFKTPKALIDKGIKVAITTDHPVVTIDNLPLCAAMAMKEGITFNEVLEAITINPAEIIGIDERVGSLKEGKDGDLVILNGSPFEIATKTIYTIINGEVVYKDEGHHHHHH | soluble
MSLLNQKIQNPNPDELMIEVDLCYELDPYELKLDEMIEAEPEPEMIEGLPASDALTPADRYLELFEHVQSAKIFPDSKTFPDCAPKMDPLDILIRYRKVRRHRDFDLRKFVENHFWLPEVYSSEYVSDPQNSLKEHIDQLWPVLTREPQDHIPWSSLLALPQSYIVPGGRFSETYYWDSYFTMLGLAESGREDLLKCMADNFAWMIENYGHIPNGNRTYYLSRSQPPVFALMVELFEEDGVRGARRYLDHLKMEYAFWMDGAESLIPNQAYRHVVRMPDGSLLNRYWDDRDTPRDESWLEDVETAKHSGRPPNEVYRDLRAGAASGWDYSSRWLRDTGRLASIRTTQFIPIDLNAFLFKLESAIANISALKGEKETEALFRQKASARRDAVNRYLWDDENGIYRDYDWRREQLALFSAAAIVPLYVGMANHEQADRLANAVRSRLLTPGGILASEYETGEQWDKPNGWAPLQWMAIQGFKMYGDDLLGDEIARSWLKTVNQFYLEQHKLIEKYHIADGVPREGGGGEYPLQDGFGWTNGVVRRLIGLYGEPEGGSHHHHHH | soluble
MSLLSGSFLEENMKHLDTYIAFDLEFNTVNDVSHVIQGSAVKYDHHKEVDSFDTYVYTDVPLQSFINGLTGITSNKIAAAPKVEEVMAAFKNFVGELPLIGYNAQKSDLPILAENGLDLRDQYQIDLFDEAYDRRSADLNGIANLRLQTVATFLGIKGRGHNSLEDARMTAAIYESFLETDTNKAYLSQQEEVITDNPFVALGGFFDEGHHHHHH | not soluble
MSLLSRSVKRELVGKSAQMEQIRSHVAQYALLNRHVVIVGESGCGRHTIAYLIHQLTTNNGHLPWVELVASAKTEWSTVEPKVQESAGGTLLIDHIELLSEEVQRNVVQSLLNQERLNRPRTRVIAVIDQPPEQLIAQNQLLPELYYLLNQGQIDVPLLRQRPDDIAALFHYFLKQSCYKLGKPMPNVEPHYLALLRAHQWPGNVRELRNVAELYAIGIVKLAGKERLYNQEEMLSPLDELVDDYEKQVIEDALFLFSGRVADAANYLQVPRKKLYLRMKKHGLEKDAFKAREGHHHHHH | not soluble
MSLLTKSAENKRNRKDDSMRPGQQLTLSIDHQTDFGYFLTDGEDTILLHNSEMTEDIEDRDEVEVFIYVDQQERLAATMKIPIISADEYGWVEVVDKVEDMGVFVDVGLSKDALVATEHLPPYEDVWPQKGDKLYCMLKVTNRGRMFAKPAPEDIISELFTDASEDLMNKELTGTVYRLIASGSFVITDDGIRCFIHPSERKEEPRLGSRVTGRVIQVKEDGSVNLSLLPRKQDAMSVDAECILTYMRMRNGAMPYSDKSQPDDIRERFNMSKAAFKRALGHLMKNGKVYQENGWTYEKKEGGSHHHHHH | soluble
MSLMDYGIDIWGNENFIIKNGKVCINYEKKPAIIDIVKELRDDGYKGPLLLRFPHLIQKQIENIYGNFNKARKEFGYKGGFNAVYPLKVNQYPGFVKNLVKLGKDYNYGLEAGSKAELLLAMAYNNEGAPITVNGFKDRELINIGFIAAEMGHNITLTIEGLNELEAIIDIAKERFKPKPNIGLRVRLHSAGVGIWAKSGGINSKFGLTSTELIEAVNLLKENKLLEQFTMIHFHLGSQITEIHPLKKALNEAGNIYTELRKMGAKNLKAINLGGGLAVEYSQFKNEKSRNYTLREYANDVVFILKNIAEQKKDLEPDIFIESGRFVAANHAVLIAPVLELFSQEYAENKLILKKQNPKLIDELYDLYKSIKPSNALEYLHDSIDHLESILTLFDLGYVDLQDRSNAEILTHLITKKAILLLGDKQNPADLLAIQDEVQERYLVNFSLFQSMPDFWGLEQNFPIMPLDRLDEEPTRSASIWDITCDSDGEISYSKDKPLFLHDVDVEKENYFLGFFLVGAYQEVLGMKHNLFTHPTEAIISINEKGYEVEGIIEAQSILDTLEDLDYDIHAIMDILNERISNSKLVNDKQKKHILGELYLFLNDNGYLKSIGVEGHHHHHH | soluble
MSLNANVVIAGPGTGKTTSISQKYLELVQSGVDPNDILCITFTNKAAENMRSRIIKALERSGTQIDLSVINVYTFHSFANSAIRRYGYRGIVNQNFLRKIIFDYLIRNSVFNYEREYLISRIVPQLENIIRYLGSFGIDRIENPEETAASLREIFKKRREEKKIKEDLEEITAIFIHLSKIMDEYRNAKEARGVIDYNDMIIKFLELEKKPHFKYVLVDELQDASDLQARLIKSVADDIYAVGDRKQAIFGFQGGGFGNFSNHFPDAHVNYLLTDHRNSEAVLNYAREFFLKNTKYPDQYRTELDQLKASKARGGSVEVVSGEEEAVLDLLKRFPEGKVGILARRNDQVIKISEILDSNGMRYASSALSAASDRAKKDVIAFLKMIIYGDMQSVIDALFTPFSGLQISEAYDIKESLISGNTSLQNYDLLNNLRRTYSAPGINGLIDMFEKLIIPIALAFDQRYFLTVERIYKNLREYLDFYGNEDRSDLINYLEICDDEVQEIDADERISVLTVHKAKGLEFDHVIYLPKAKKDEKMSAVDLVAEQMIRLKTEGHHHHHH | soluble
MSLNAPQWLGAEGEKIAARHLAAKGYRIVARNYRFHRNEIDIIAFDGEALCFIEVKTRASLGKGHPAESVTRSKQKEIARAAAGYLASLDDPWITCRFDVIAVLALSIDERSIRKYEIEHIKAAFMVGDKGEGHHHHHH | soluble
MSLNDIIEQLQELSETVPVPLELPTFEQLVEVEEQILIGLPNDLKEFLMYGSDVIYGTLEPVTAADPSSHTYLPEVACYAWSIGLPREQIAICQIGDSFYCIDEESQVMFWKKGRFSDKVWESFWHWAEDVWLNREGHHHHHH | soluble
MSLNDKAILVGVDGSHASYKATWWAANYAKHAGLTLQIVCAYSLPSYAAVSFDATYTAMGDDNAAHNDAQEILSKAKAIADEQGVEASTLIVTGDPASVFVELSRNYNLIVIGNRGKGGLAERLLGTTSSSLPAYAYCPIVVVPYTDDEGNLMHLNNTITKVAVGSDESKWGLKALEIAAAFADSWGAELDVISAVPNMKGSEDEGVMASFQEDLDVRIKPLEAAYPSLKINKQIVPGPAAGALTKASYDHDVVVVGSRGRGGFTGLLLGSTSQGLLQHAVGPVYVVPRKYVEAAETRLDTVPSSPADVTPKAIDDIKGVEEVPVDKAKPEVVEAIETKIDPDREGHHHHHH | soluble
MSLNERVMMINANGVPIALYNRGHLGSGHFGAVIKASLDDGTLYAAKVPYSQIVPNADATSAELEAEISSARAELVKTIRQELDVRDKLVAKGLTLTETAEQYGLPLCQMTLTLPENKATVVRRGSRLVVVSKEVMLLPLIDGSPSNSLVQSQPPFLFQRAVAREAIIALAKLHELGFAHGDVKLNNMMIDVHGFGHMLDMGSVRPVDSCVSEEDKYYLRLWAPELAKSQHTSQQTCLKRGALDVWALGLAIFEFVCFNRLPYSLSNLPSSLWSRVEHLSRLRLSDFSAKDCNESDPAVMGIVAQFLNPNPEERPELPKFVSSYTFFRQAPGVTSHLTRIPTTELSSHREGHHHHHH | soluble
MSLNFIDEFRDKESILALKKLIEQELKNPINIMEICGGHTHSIMKYALPSILPKEINFIHGPGCPVCVMPRVRIDTAIKLASMKDTIFCTLGDLLRVPGSEISLLDLRAKGADVRALYSPLEVLEIAKQNLNKNIIFFAIGFETTTPMSALLLQKVIEEKINNVFFHINHITVPAPVEAIMNDENVKINAFLGPSHVSVITGYGIYEPLAAKFKTPIAVSGFEPVDILESVLNIIKQSNEGTFKVYNQYKRAVSKEGNVKAQNLVKKYFRVCDFEFRGLGLIKNGGLELKEEFSAYDASKKFDCTVQSKNESKACICGQILRGLAKPYDCKVFGKACTPRSPIGSCMVSGEGACAAYYKYSKVNAEGHHHHHH | soluble
